Measured values published in paper PMC9370705, “Conformational Dynamics of Human ALKBH2 Dioxygenase in the Course of DNA Repair as Revealed by Stopped-Flow Fluorescence Spectroscopy”.

What was measured:
ALKBH2 [1] = target: T1, ALKBH2 (Homo sapiens, UniProt Q6NS38 1-261); experiment: stopped-flow FRET; Fe(II), 2OG; initial complex k1/k-1; 50 mM HEPES-KOH pH 7.5, 50 mM KCl, 10 mM MgCl2, 25 °C (titration, 1 uM enzyme per legend); 2 mM EDTA for apo; stopped-flow buffer not printed in the material; conditions: protein: recombinant; (Ni-chelating column); label: 5'-FAM and 3'-BHQ1 on strand 1; blunt
T1 sequence: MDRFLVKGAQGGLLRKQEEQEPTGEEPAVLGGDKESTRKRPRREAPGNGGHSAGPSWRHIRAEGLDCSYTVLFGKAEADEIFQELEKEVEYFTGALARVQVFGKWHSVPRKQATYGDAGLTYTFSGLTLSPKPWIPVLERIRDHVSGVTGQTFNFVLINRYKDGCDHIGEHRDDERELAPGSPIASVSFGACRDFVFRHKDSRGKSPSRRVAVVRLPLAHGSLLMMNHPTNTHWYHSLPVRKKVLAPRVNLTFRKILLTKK

ALKBH2 [2] = target: T1, ALKBH2; experiment: stopped-flow fluorescence (FRET/εA); Fe(II), 2OG; overall KaSF (Eq. 1); 50 mM HEPES-KOH pH 7.5, 50 mM KCl, 10 mM MgCl2, 25 °C (titration, 1 uM enzyme per legend); 2 mM EDTA for apo; stopped-flow buffer not printed in the material; conditions: protein: recombinant; (Ni-chelating column); label: 5'-FAM and 3'-BHQ1 on strand 1; blunt
ALKBH2 [3] = target: T1, ALKBH2; experiment: stopped-flow FRET; Fe(II), 2OG; enzyme-product complex after m1A repair; 50 mM HEPES-KOH pH 7.5, 50 mM KCl, 10 mM MgCl2, 25 °C (titration, 1 uM enzyme per legend); 2 mM EDTA for apo; stopped-flow buffer not printed in the material; conditions: protein: recombinant; (Ni-chelating column); label: 5'-FAM and 3'-BHQ1 on strand 1; blunt
ALKBH2 [4] = target: T1, ALKBH2; experiment: stopped-flow FRET; Fe(II), 2OG; enzyme-product complex after εA repair; 50 mM HEPES-KOH pH 7.5, 50 mM KCl, 10 mM MgCl2, 25 °C (titration, 1 uM enzyme per legend); 2 mM EDTA for apo; stopped-flow buffer not printed in the material; conditions: protein: recombinant; (Ni-chelating column); label: 5'-FAM and 3'-BHQ1 on strand 1; blunt
ALKBH2 [5] = target: T1, ALKBH2; experiment: stopped-flow εA fluorescence; Fe(II), 2OG; enzyme-product complex after εA repair; 50 mM HEPES-KOH pH 7.5, 50 mM KCl, 10 mM MgCl2, 25 °C (titration, 1 uM enzyme per legend); 2 mM EDTA for apo; stopped-flow buffer not printed in the material; conditions: protein: recombinant; (Ni-chelating column); blunt
ALKBH2 [6] = target: T1, ALKBH2; experiment: Trp fluorescence titration; Fe(II)/2OG complex per Figure 2 legend (text says ALKBH2); 50 mM HEPES-KOH pH 7.5, 50 mM KCl, 10 mM MgCl2, 25 °C (titration, 1 uM enzyme per legend); 2 mM EDTA for apo; stopped-flow buffer not printed in the material; conditions: protein: recombinant; (Ni-chelating column); blunt
ALKBH2 [7] = target: T1, ALKBH2; experiment: stopped-flow FRET; Fe(II), 2OG; overall KaSF (Eq. 1); 50 mM HEPES-KOH pH 7.5, 50 mM KCl, 10 mM MgCl2, 25 °C (titration, 1 uM enzyme per legend); 2 mM EDTA for apo; stopped-flow buffer not printed in the material; conditions: protein: recombinant; (Ni-chelating column); label: 5'-FAM and 3'-BHQ1 on strand 1; blunt
ALKBH2 [8] = target: T1, ALKBH2; experiment: stopped-flow FRET; Fe(II), 2OG; overall KaSF (Eq. 1); Table 2 rates give about 2.3e5; 50 mM HEPES-KOH pH 7.5, 50 mM KCl, 10 mM MgCl2, 25 °C (titration, 1 uM enzyme per legend); 2 mM EDTA for apo; stopped-flow buffer not printed in the material; conditions: protein: recombinant; (Ni-chelating column); label: 5'-FAM and 3'-BHQ1 on strand 1; blunt

B1: εA_FRET (dsDNA)
DNA 1: ACAGGATCCGGCATA
DNA 2: TATGCCGGATCCTGT
modifications: 1,N6-ethenoadenine at position 6 of strand 1
With B1 the Ka (ALKBH2 [1]) was 860000 M⁻¹ and the Ka (ALKBH2 [2]) was 1.9e+06 M⁻¹.

B2: repaired product of m1A_FRET or εA_FRET (dsDNA)
DNA 1: ACAGGATCCGGCATA
DNA 2: TATGCCGGATCCTGT
For B2, the Kd (ALKBH2 [3]) was 1400 ± 200 nM and the Kd (ALKBH2 [4]) was 400 ± 10 nM.

B3: undamaged 15 nt duplex (A instead of m1A); also product A of m1A or εA repair (dsDNA)
DNA 1: ACAGGATCCGGCATA
DNA 2: TATGCCGGATCCTGT
For B3, the Kd (ALKBH2 [5]) was 2200 ± 100 nM and the Kd (ALKBH2 [6]) was 7800 ± 1200 nM.

B4: m1A_FRET (dsDNA)
DNA 1: ACAGGATCCGGCATA
DNA 2: TATGCCGGATCCTGT
modifications: N1-methyladenine at position 6 of strand 1
B4 gave a Ka (ALKBH2 [7]) of 600000 M⁻¹.

B5: m3C_FRET (dsDNA)
DNA 1: ACAGGATCCGGCATA
DNA 2: TATGCCGGATCCTGT
modifications: N3-methylcytosine at position 9 of strand 1
Work on B5 yielded a Ka (ALKBH2 [1]) of 230000 M⁻¹ and a Ka (ALKBH2 [8]) of 460000 M⁻¹.
